In patent publication US20240002497A1 (Merck Sharp & Dohme, published 2024):

Key:
rhNav1.7α + β1-β2-β3 = target: T1, rhNav1.7α + β1-β2-β3 (rhesus monkey); experiment: binding FACS, CHO FlpIn cells
T1 construct: also called rhNav1.7-beta1-beta2-beta3; rhesus Nav1.7α
Method: (§1) Binding of the ISVDs to cell-expressed Nav1.7α was detected via murine anti-Flag (Sigma, catalog #F1804). Briefly, cells were resuspended in FACS buffer (PBS, 10% FBS, NaN₃) and transferred to a 96-well V-bottom plate at 1×10^5 cells/well. Purified FLAG3-tagged ISVD was diluted in FACS buffer and added to the cells for 30 minutes at 4° C. […] Prior to the read-out, the samples were resuspended in 1 μg/mL propidium iodide (Sigma, catalog #P4170) to exclude dead cells. Between each step, the cells were centrifuged for 5 minutes at 200 grams and washed with 100 μL/well FACS buffer.

huNav1.7α + β1-β2-β3 = target: T2, huNav1.7α + β1-β2-β3 (human, UniProt Q15858 1-1988; A5A6L6 19-218; O60939 30-215; Q2KI11 23-215); experiment: binding FACS, CHO FlpIn cells
T2 construct: Cell line (CHO FlpIn, HEK FlpIn, transient HEK293T) is named under assay; also called huNav1.7-beta1-beta2-beta3; human Nav1.7α with Navβ1, Navβ2 and Navβ3
Method: as §1

| Binder | Bmax (rhNav1.7α + β1-β2-β3) [%] | EC50 (rhNav1.7α + β1-β2-β3) [nM] | Bmax (huNav1.7α + β1-β2-β3) [%] | EC50 (huNav1.7α + β1-β2-β3) [nM] | binding result (rhNav1.7α + β1-β2-β3) |
| --- | --- | --- | --- | --- | --- |
| F010302345 (VHH) VHH: EVQLVESGGGVVQPGGSLRLSCAASHRQFIRDVFTGWYRQAPGKQRELVARIYEGGNTQYADSAKGRFTISRDNAKKTVYLQMNSLRPEDTALYYCLFSGTISTGREYRSGDYWGQGTLVTVSS | 96 | 12 | 100 | 4.9 |  |
| F010302343 (VHH) VHH: EVQLVESGGGVVQPGGSLRLSCAASSRQFIRDVFTGWYRQAPGKQRELVARIYESGNTQYADSAKGRFTISRDNAKKTVYLQMNSLRPEDTALYYCLFSGTISTGREYRSGDYWGQGTLVTVSS | 84 | 18 | 100 | 6.4 |  |
| F010302333 (VHH) VHH: EVQLVESGGGVVQPGGSLRLSCAASSRQFIRDVFTGWYRRAPGKQRELVARIYNEGNTNYADSAKGRFTISRDNAKKTVYLQMNSLRPEDTALYYCLFSGTISTGREYRSGDYWGQGTLVTVSS |  |  | 100 | 4.1 | no binding |
| F010302335 (VHH) VHH: EVQLVESGGGVVQPGGSLRLSCAASSRQFIRDVFTGWYRRAPGKQRELVARIYESGNTQYADSAKGRFTISRDNAKKTVYLQMNSLRPEDTALYYCLFSGTISTGREYRSGDYWGQGTLVTVSS | 84 | 13 | 100 | 4.1 |  |
| F010302334 (VHH) VHH: EVQLVESGGGVVQPGGSLRLSCAASSRQFIRDVFTGWYRRAPGKQRELVARIYNEGNTQYADSAKGRFTISRDNAKKTVYLQMNSLRPEDTALYYCLFSGTISTGREYRSGDYWGQGTLVTVSS | 70 | 11 | 100 | 4 |  |
| F010302336 (VHH) VHH: EVQLVESGGGVVQPGGSLRLSCAASHRQFIRDVFTGWYRRAPGKQRELVARIYNEGNTQYADSAKGRFTISRDNAKKTVYLQMNSLRPEDTALYYCLFSGTISTGREYRSGDYWGQGTLVTVSS | 79 | 9.7 | 100 | 3.6 |  |
| F010302341 (VHH) VHH: EVQLVESGGGVVQPGGSLRLSCAASSRQFIRDVFTGWYRQAPGKQRELVARIYNEGNTNYADSAKGRFTISRDNAKKTVYLQMNSLRPEDTALYYCLFSGTISTGREYRSGDYWGQGTLVTVSS |  |  | 100 | 5.3 | no binding |
| F010302339 (VHH) VHH: EVQLVESGGGVVQPGGSLRLSCAASHRAFIRDVFTGWYRRAPGKQRELVARIYEGGNTQYADSAKGRFTISRDNAKKTVYLQMNSLRPEDTALYYCLFSGTISTGREYRSGDYWGQGTLVTVSS | 100 | 6.8 | 100 | 4.3 |  |
| F010302342 (VHH) VHH: EVQLVESGGGVVQPGGSLRLSCAASSRQFIRDVFTGWYRQAPGKQRELVARIYNEGNTQYADSAKGRFTISRDNAKKTVYLQMNSLRPEDTALYYCLFSGTISTGREYRSGDYWGQGTLVTVSS | 61 | 16 | 100 | 4 |  |
| F010302337 (VHH) VHH: EVQLVESGGGVVQPGGSLRLSCAASHRQFIRDVFTGWYRRAPGKQRELVARIYEGGNTQYADSAKGRFTISRDNAKKTVYLQMNSLRPEDTALYYCLFSGTISTGREYRSGDYWGQGTLVTVSS | 100 | 6.8 | 100 | 3.9 |  |
| F010302338 (VHH) VHH: EVQLVESGGGVVQPGGSLRLSCAASHRAFIRDVFTGWYRRAPGKQRELVARIYESGNTQYADSAKGRFTISRDNAKKTVYLQMNSLRPEDTALYYCLFSGTISTGREYRSGDYWGQGTLVTVSS | 100 | 7.9 | 100 | 3.4 |  |
| F010302340 (VHH) VHH: EVQLVESGGGVVQPGGSLRLSCAASHRAFIRDLFTGWYRRAPGKQRELVARIYESGNTNYADSAKGRFTISRDNAKKTVYLQMNSLRPEDTALYYCLFSGTISTGREYRSGDYWGQGTLVTVSS | 96 | 13 | 100 | 4.6 |  |
| F010301882 (VHH, I30V vs F0103464B09 (Kabat)) VHH: EVQLVESGGGLVQPGGSLRLSCATTSRAFVRDVFTGWYRRVPGKERELVARIYNGGNTNYADFAKGRFSISRDNAKKMVTLRMSNLKPEDTGVYYCLFSGTINTGREYRSGDYWGQGTLVTVSS | 43 | 41 |  | 4.5 |  |
| F010301889 (VHH, S95A vs F0103464B09 (Kabat)) VHH: EVQLVESGGGLVQPGGSLRLSCATTSRAFIRDVFTGWYRRVPGKERELVARIYNGGNTNYADFAKGRFSISRDNAKKMVTLRMSNLKPEDTGVYYCLFAGTINTGREYRSGDYWGQGTLVTVSS | 92 | 8.5 |  | 5.4 |  |
| F010301888 (VHH, S26H vs F0103464B09 (Kabat)) VHH: EVQLVESGGGLVQPGGSLRLSCATTHRAFIRDVFTGWYRRVPGKERELVARIYNGGNTNYADFAKGRFSISRDNAKKMVTLRMSNLKPEDTGVYYCLFSGTINTGREYRSGDYWGQGTLVTVSS | 95 | 8.7 |  | 5.3 |  |
| F010301891 (VHH, T57V vs F0103464B09 (Kabat)) VHH: EVQLVESGGGLVQPGGSLRLSCATTSRAFIRDVFTGWYRRVPGKERELVARIYNGGNVNYADFAKGRFSISRDNAKKMVTLRMSNLKPEDTGVYYCLFSGTINTGREYRSGDYWGQGTLVTVSS | 45 | 26 |  | 4.7 |  |
| F010301883 (VHH, I51V vs F0103464B09 (Kabat)) VHH: EVQLVESGGGLVQPGGSLRLSCATTSRAFIRDVFTGWYRRVPGKERELVARVYNGGNTNYADFAKGRFSISRDNAKKMVTLRMSNLKPEDTGVYYCLFSGTINTGREYRSGDYWGQGTLVTVSS | 48 | 34 |  | 4.8 |  |
| F010301885 (VHH, N53E vs F0103464B09 (Kabat)) VHH: EVQLVESGGGLVQPGGSLRLSCATTSRAFIRDVFTGWYRRVPGKERELVARIYEGGNTNYADFAKGRFSISRDNAKKMVTLRMSNLKPEDTGVYYCLFSGTINTGREYRSGDYWGQGTLVTVSS | 100 | 18 |  | 8 |  |
| F010301890 (VHH, T35V vs F0103464B09 (Kabat)) VHH: EVQLVESGGGLVQPGGSLRLSCATTSRAFIRDVFVGWYRRVPGKERELVARIYNGGNTNYADFAKGRFSISRDNAKKMVTLRMSNLKPEDTGVYYCLFSGTINTGREYRSGDYWGQGTLVTVSS | 58 | 20 |  | 5 |  |
| F010301884 (VHH, N53A vs F0103464B09 (Kabat)) VHH: EVQLVESGGGLVQPGGSLRLSCATTSRAFIRDVFTGWYRRVPGKERELVARIYAGGNTNYADFAKGRFSISRDNAKKMVTLRMSNLKPEDTGVYYCLFSGTINTGREYRSGDYWGQGTLVTVSS | 47 | 50 |  | 6 |  |
| F010301887 (VHH, R31Q vs F0103464B09 (Kabat)) VHH: EVQLVESGGGLVQPGGSLRLSCATTSRAFIQDVFTGWYRRVPGKERELVARIYNGGNTNYADFAKGRFSISRDNAKKMVTLRMSNLKPEDTGVYYCLFSGTINTGREYRSGDYWGQGTLVTVSS | 51 | 59 |  | 7.5 |  |
| F010301892 (VHH, V33L vs F0103464B09 (Kabat); also called F0103464B09(V33L)) VHH: EVQLVESGGGLVQPGGSLRLSCATTSRAFIRDLFTGWYRRVPGKERELVARIYNGGNTNYADFAKGRFSISRDNAKKMVTLRMSNLKPEDTGVYYCLFSGTINTGREYRSGDYWGQGTLVTVSS | 100 | 9.1 |  | 4 |  |
| F010301886 (VHH, N58Q vs F0103464B09 (Kabat)) VHH: EVQLVESGGGLVQPGGSLRLSCATTSRAFIRDVFTGWYRRVPGKERELVARIYNGGNTQYADFAKGRFSISRDNAKKMVTLRMSNLKPEDTGVYYCLFSGTINTGREYRSGDYWGQGTLVTVSS | 81 | 15 |  | 4.3 |  |
